The DeepSol protein solubility set

assay: soluble on expression in E. coli; label from the status in PepcDB or PDB records

Sequence | soluble on expression in E. coli
MSLEAIRIGEINSYSQIPAFTLPYRNGWQLAVEQINAAGGLLGGRPLEVISRDDGGDPGKAVTAAQELLTRHGVHALAGTFLSHVGLAVSDFARQRKVLFMASEPLTDALTWEKGNRYTYRLRPSTYMQAAMLAAEAAKLPITRWATIAPNYEYGQSAVARFKELLLAARPEVTFVAEQWPALYKLDAGPTVQALQQAEPEGLFNVLFGADLPKFVREGRVRGLFAGRQVVSMLTGEPEYLNPLKDEAPEGWIVTGYPWYDIDTAPHRAFVEAYRARWKEDPFVGSLVGYNTLTAMAVAFEKAGGTESETLVETLKDMAFSTPMGPLSFRASDHQSTMGAWVGRTALRDGKGVMVDWRYVDGGSVLPPPEVVSAWRPAGEGHHHHHH | soluble
MNSAWALLRLASPQLPIGGYSYSQGLEMAVEQSIVIDPQTAGRWIGDQLLLNLARFEAPLLLAHCEAAAVGDWGQLLQVSEQHRASRETRELHQESRQMGYSLQQLLNGLPELDRDARRFLEQTTEPHLALGWALAARTWRISPQDALAAWLWSWLENQLAVLMKTLPLGQQAAQRLTSELLPLLQQAQVNASAQDTHPAGSAAFGLALASMAHERQYSRLFRS | soluble
MTVEHSEAPMTETDVVIIGAGHNGLTCAAYLAMAGLRVRVVERRKVVGGAAVTEEFHPGFRNSVAAYTVSLLNPQVIRDLGLAEQGLRIVERRAQNFLPAPDGSYLLTGEGRTKASVARLSAHDADALDGFSRELEDIADVLRQFVLRAPPNLLDGFGTNAIREAVNALQSANILRGLTLEQSRSLLDLFTRSAGEMLDERFEHDLVKALFGFDAIVGNYASPYAAGSAYVMLHHAFGEVNGKKGVWGHAIGGMGAITQAMARAAQGRGVAIDTDAGVREVIVERDRAVGVVLENGATIRAKYVAANVNPKLLYTRLIAADALPKDFLARIRHWKNGSGTFRMNVALDRLPSFTALPDDGDHLTSGIILAPSLGYMDRAFLDARAHGWSREPVVEMLIPSTLDDTLAPEGKHVASLFCQHVAPELPDSRSWDDHRDEVADLMIATVDSYAPGFASSVLGRQILSPLDLERQFGLLGGDIFHGALTLNQLFSARPMLGHADYRGPLKGLYHCGSGAHPGGGVTGAPGHNAAQAILRDHRSLFGSRGLEHHHHHH | not soluble
WQYMFYSALSIFVSGKVTDAVYTKQKKMQVMIVTKNPDRVVDEIQKKMRRGITIIHEAEGAYRHDRQTVLLTIVTRFELPSLEAAMKESDPNAFVSISDNVKILGRFYEEDYK | not soluble
MTDQPISLEEIRLRLNELDDQLLSLLSERRKLSIEVAKSKVQTSKPVRDAVREQQLLVKLISNGRDKYELDAQYITKLFHTIIEDSVLLQQGYLQNLVNPQQSRKPLARVAFLGAKGSYSHLASREYFSRKNTELIELNCEHFKEVTRTVESGHADYGVLPIENTSSGSINEVYDLLQHTTLYIVGELTQPIEHCLVATKDIRLEDIKTLYSHPQPHQQCSEFLSRMKGVKLESCASTADAMQKVQEMNRDDVAAIGNASSGKLYGLQAIQGNIANQTENHTRFIVVARKPVEVSTQIPAKTTLIMSTSQEAGSLVETLLVLQRYGINMTKLESRPIMGNPWEEMFYVDLEAHLGSTEMQQALQELTKITKHLKVLGCYPSENIKPTQVKLS | not soluble
MGSDKIHHHHHHMKFKIHSDITYQVMSPTTFIFNVHALRTESQHILDESLIVTPPIEIEEFSYNSGTSRFVRLKATENTTFSMSYTATVDTQYKVIDQRQELETVPVVDLDGDIIPFLFPSRYCQSDKLQKLAYKEFGKIENVYSKVLAITDWIYNNVEYISGSTNSQTSAFDTITERAGVCRDFAHLGIALCRALSIPARYFTGYAFKLNPPDFHACFEAYIGGNWIIFDATRLVPLNGLVKIATGRDAADAAVASIFGNASSTNMHVECASLDTDFTPFWYDKNSLKGLSFQ | not soluble
MKKIIGLVGTNSEQSTNRQLLQFMQHYFAQEADIELVEIVDFPMFNKPEDKVLPEIVKTVAEKIEAADGVIISTPEYDHAVPASLMNALSWLSYGIFPFVDKPVMITGASYGTLGSSRAQAHLRQILDAPELKARIMPSSEFLLAHSLQAFDENNALKDSEQIDKLAGLFADFCVFIEITEQLKHAHAQNKKEAENFSWETI | not soluble
MSLMMFRYANFQIIKKEQELVISRGIIEKHQVTIPLRKIQAIKIKENIIRQLFGFVTVSIVSAGGGDREKEEGALTILFPMIHKKKLPHMLRTFTPEYTLEENCRRLPRREGHHHHHH | not soluble
MSLRHDVILVLLDGLNHSVARDCMGHLQALCGAGRGQSYRLECELPSLSRPLYECILTGVPPIDSGILHNDVVRLSQEQSLFHYARAAGLSTAAAAYHWVSELYNRAPFDPARDRHTDDSALPIQRGHFYWSDHYPDSHLFADAESLRRRHAPNFMLVHSMNIDDAGHRHGLASPAYRNAARRADALLSEYLHQWLAAGYQVAITADHGMNEDRSHGGILEEEREVPLFVFGDAFSRDDLAQPLQTDLCGTLCEILGAAHDKPVCREEGHHHHHH | not soluble
SNASKEKREKLEAYQHLFYLLQTNPTYLAKLIFQMPQNKSTKFMDSVIFTLYNYASNQREEYLLLRLFKTALQEEIKSKVDQIQEIVTGNPTVIKMVVSFNRGARGQNALRQILAPVVKEIMDDKSLNIKTDPVDIYKSWVNQMESQTGEASKLPYDVTPEQALAHEEVKTRLDSSIRNMRAVTDKFLSAIVSSVDKIPYGMRFIAKVLKDSLHEKFPDAGEDELLKIIGNLLYYRYMNPAIVAPDAFDIIDLSAGGQLTTDQRRNLGSIAKMLQHAASNKMFLGDNAHLSIINEYLSQSYQKFRRFFQTACDVPELQDKFNVDEYSDLVTLTKPVIYISIGEIINTHTLLLDHQDAIAPEHNDPIHELLDDLGEVPTIESLIGESS | soluble
MAMPEIDALLGLSFCLYFFDNKQHKLPHIHVKYGSYELIIAIETGECLEGYLPNKQRKRAENHILEHREQLMVMWNKAVNGENPGKLGDLCLEHHHHHH | not soluble
SNAMPLPKSLKYGDTIGIYSPSSPVTYTSPKRFERAKSYLLQKGFHILEGSLTGRYDYYRSGSIQERAKELNALIRNPNVSCIMSTIGGMNSNSLLPYIDYDAFQNNPKIMIGYSDATALLLGIYAKTGIPTFYGPALVPSFGEFEPFVDDTYKYFLETLLHDQALPYNIKQPLFWSDEFINWEEKTKEKELRPNNWISVTNGQATGRVIGGNLNTIQGIWGSPYMPCIQEGDILFIEDSSKDAATIERSFSFLKINGVFDKVSGIILGKHEQFDDCGTNRKPYEILLEVLQNQRIPLLADFDCCHTHPMITMPIGVQVKMDATNKTIHILEKWKI | soluble
MQINKDELIKMGNHLKEARLSKQLTQEELARLSNISQATIVKYENGLRSISKKNDRILSDVLGAESFIKDMIQRKQQVLIDLEKYQTKNIFSREDLSKKLGIEISLLNKFLNQSRPLSKNAIVKITQLLSNEGKEILMDIKQEDGSFKLPIIDKIAMGKRIQEIRKNRGETLEKFGKNFTRPAGKNVVNRWEKGTNIPDIERLMNVAYLGKVAVPYILYGETFSKMLKKGSRISKFEKLDSFRMGLRLRKIRRDYRLEREDFGKFFSPPITKWSMDKYENGKDIPNTDRIIQYAYIGKVSLNFLIYGVN | not soluble
MGPMPKLADRKLCADQECSHPISMAVALQDYMAPDCRFLTIHRGQVVYVFSKLKGRGRLFWGGSVQGDYYGDLAARLGYFPSSIVREDQTLKPGKVDVKTDKWDFYCQ | soluble
MDGAQPKTNFFERLIARLAREPDSAEDVLNLLRQAHEQEVFDADTLTRLEKVLDFAELEVRDAMITRSRMNVLKENDSIERITAYVIDTAHSRFPVIGEDKDEVLGILHAKDLLKYMFNPEQFHLKSVLRPAVFVPEGKSLTALLKEFREQRNHMAIVIDEYGGTSGLVTFEDIIEQIVGDIEDEFD | soluble
MKKEKLRTENISFQYPGAATYALKDVSFSLFEGEWVSVIGQNGSGKSTLAKLLNGLFLPEAGTITVNDTMILSEETVWDVRKQIGMVFQNPDNQFVGTTVQDDVVFGLENIGMPREQMVERLNQALRLVRMEDFLNDEPHSLSGGQKQRVAIAGVLALQPSILILDEATSMLDPQGRREVVETVRQLVNEKGITVLSITHDLEEAAQSDRVIILNKGEILEEGTPEQIFKSSHMLQEIGLDVPFSVKIAELLKRNEILLQNTHLTMESLVNELWRLHSKK | not soluble
MAHHHHHHMVSVDTSTRRFLEMFCDFDAKRCKLCNETFLQWHIHANGIPHAGREGMLLELVRPYCGTPDELIEMWWQRLNSCAAFHRIPGLSHDNPHERKRRLLYLLKVLKDRGILVETFNVSDNQSTNSARSWEFERLEFVGDNVVKYVLNNIISCAFPPHEGGTKGKMTCFQFVMDGNDGLARGYDHLDLQQLASSPRVVSKFKSDIVETLFAELQMYLWSTQHDIGTCPLVFPFTKDIYTLRALVQHVLYELGIELFLYHIRHINGMLQRVMRENHLQFVKADSALKPRAGARTGSLGVSTRRGDWSDDDDDYDCPQSYGTPAVSAPTAALMKVRSQRTHVQGTGAALFFASTNYDNFKRVVPIGGLLPRPFARQDLSVIPNHMPHLRSDGAMTRRMRRVGNAGWSTLHATATALTTLESVADGLALSAETTPRVGSEPVRLSVPRLKDEELIPELI | not soluble
MAHHHHHHMMSMRPTTGMAPPPTGMAFSATGSSHTGPMRPTTTMGGGTTLGRIQAQVQEGTFTSTVYGYIRDHQYEEAVELLATQLEEFPRSRAAASLMAYCYYMMGDYGEAASLYEQLTKICPNIEEYRVYYAQSLYKAGAYAESNRLCTLITSPQNQTTLNKLQAAIAYEQEDIPQTKSFLDQAPETDTDMLVLRACVLSKEGSYEEALEKFKEAQNAVGFSAALTYNMALMYYKMEQYGPALRHLAEIIDRGVEEHPELNIGTNTEGGEARSVGNTQLLRETALIEAFNLKAAIEYASKNMQAAKEALTDMPPRTDAELDPVTLHNTALINMDENPTNAFKKFNFLLQNPPFPPETFQNLLLFYCKYQYYDLAADVLAENPHLAWQYLSQNNQSLYDFLDGLITAQTSPAEAYRKFDILAQKMVQQLRNMTRRIQEADQSQDAAVAKTAVRTYDVTLEEYIPVLMAQANIYWEMENYPMVEQLFRQSADFCSENDVWKQNVAHVFFMQETKFKEAIRYYSPVVEANRENILNCSAIVLANLCVSYIMTAQNEQAEEIMRRIERAEERLTYEDSSKQPLHLCIVNLVIGTLYCSKGNFEFGISRIIKSLEPYDRKIMTDTWFYAKRCFLALAMNLAKHMVSLKDSSFEEILFFFDQADLHGEKIFAFIHPDPSKQDTSPRNTARWEARQLKKLYLTLKE | not soluble
SLCHVTRPDAVVMEIEVDAKANGEDCLNKVCRKLGIIEVDYFGLQFSGSKGENLWLNLRNRISQQMDNLTPCRLRLRVKFFVEPHLILQEQTRHLFFMHVKEDLHRGHLRMCSEQAQELSALLAQAEFGDYNQNTAKYWYTELCGSEPNQTTINSIIAKHKALEGLSQASVEYQALQLVSSLEHYGVEWHWARDAEAQRLAIGVGPEGIAICRDDFSLVNRISYPIIQIATQSGKSVYLTVTKESSDSVVLLFKLISN | soluble
